Test results as given in FireProtDB (doi:10.1016/j.jmb.2004.06.079).

B1: Malate dehydrogenase, P80040 (parent)
chain: MRKKISIIGAGFVGSTTAHWLAAKELGDIVLLDFVEGVPQGKALDLYEASPIEGFDVRVTGTNNYADTANSDVIVVTSGAPRKPGMSREDLIKVNADITRACISQAAPLSPNAVIIMVNNPLDAMTYLAAEVSGFPKERVIGQAGVLDAARYRTFIAMEAGVSVEDVQAMLMGGHGDEMVPLPRFSTISGIPVSEFIAPDRLAQIVERTRKGGGEIVNLLKTGSAYYAPAAATAQMVEAVLKDKKRVMPVAAYLTGQYGLNDIYFGVPVILGAGGVEKILELPLNEEEMALLNASAKAVRATLDTLKSL

Variants of: B1
Conditions: Chloroflexus aurantiacus (strain ATCC 29366 / DSM 635 / J-10-fl), Thermal, CD, structure 1GUY, whole UniProt chain shown
[1] = pH 7.5, potassium phosphate 10 mM
[2] = pH 6, potassium phosphate 10 mM

Variant	Tm (pH 4.4, sodium acetate 10 mM) [°C]	change of melting temperature, mutant - wild type (higher = more stable) (pH 4.4, sodium acetate 10 mM) [°C]	Tm [1] [°C]	change of melting temperature, mutant - wild type (higher = more stable) [1] [°C]	Tm [2] [°C]	change of melting temperature, mutant - wild type (higher = more stable) [2] [°C]
E165Q	85.8	5.4	91.4	23.6	–	–
E165K	85	4.6	91.7	23.9	91.4	12
